# B1: gl-3BNC60 (antibody, V domains shown)
# VH: not shown
# VL: DIQMTQSPSSLSASVGDRVTITCQASQDISNYLNWYQQKPGKAPKLLIYDASNLETGVPSRFSGSGSGTDFTFTISSLQPEDIATYYCQQYEFIGPGTKVDIK
# notes: also called 3BNC60 germline; inferred germline precursor of 3BNC60
# Molecular target: T1, BG505 SOSIP.v4.1-GT1.1 (HIV-1 (isolate BG505), UniProt Q2N0S6)
# T1 construct: copies: 3 + 3
# Assay: SPR; Biacore 3000; His-tagged GT1 and GT1.1 trimers captured in parallel flow cells; IgG injected from 1 uM in two- or four-fold dilutions; association 300 s, dissociation 600 s, 50 uL/min; bivalent model (first- and second-point interaction; kon2 and KD2 converted from RU units)
# Details: both partners purified
binder,measurement,value
B1,stoichiometry N,1.1 paratopes per trimer
